Reference: patent publication US11397178B2, “Method of predicting progression of idiopathic pulmonary fibrosis and monitoring of therapeutic efficacy” (Cedars-Sinai Medical Center, priority 2016, dated 2022)

Tested on: CCR10+ EphA3+ cells
Assay: Humanized NSG mouse model of IPF: KB004 / KB243 mAb treatment (hydroxyproline, Masson's trichrome, flow cytometry)
Assay type: in vivo, human IPF cells in NSG mice
Description: Six to eight-week old, female, pathogen free NOD Cg-Prkdc^SCID IL2rg^Tm1wil Szi (NSG) or NOD.Cg-Prkdc^SCID IL2rg^tm1Wil Tg(CAG-EGFP) 10sb/SzJ (NSG-GFP) were purchased from Jackson Laboratories and housed in Cedars-Sinai Medical Center's high isolation animal rooms. NSG mice were allowed a minimum of one week to acclimate in the facility and then these mice either received nothing (i.e., non-humanized) 1×10^6 IPF cells by intravenous injection (i.e. humanized). In most in vivo experiments, the IPF cells used were removed from liquid N2 storage, rapidly thawed, and washed in serum-free medium prior to injection into NSG mice. […] […] Other groups of humanized NSG mice received either vehicle (i.e., solutol) or BIBF1120 (Cayman Chemicals) by oral gavage beginning at day 35 after IPF cell injection. Vehicle or drug was administered 5 days a week until day 63 after IPF cell injection. All NSG groups were monitored daily and mice were sacrificed if there is evidence for morbidity such as weight loss of more than 20%, loss of fur, paralysis and/or lack of responsiveness when handled.
Murine lung cellular suspensions were generated using a mouse lung dissociation kit, C-tubes, and a GentleMacs dissociator (Miltenyi Biotech). Spleens were dissociated using a sterile rubber tip of 1 ml syringe plunger and 100 μm 50 ml tube filters (BD bioscience) as follows: isolated spleens were placed in 1 ml of sterile complete medium until all the samples were collected. Sterile 50 ml conical tube filters were placed on top of sterile 50 ml conical tubes and were equilibrated by pipetting 1 ml of calcium and magnesium free DPBS (DBPS; Cellgro) through the filters. Spleens were transferred to a sterile 50 ml filter, cellular suspensions were generated using a sterile rubber tip of a syringe plunger, and splenic material was flushed with 5 ml of DPBS. Lung and splenic cell suspensions were centrifuged and resuspended in 1 ml of RBC lysis buffer (Biolegend), incubated at room temperature for 1-2 min and then equilibrated by adding 25 ml of DPBS to each tube. Cells were centrifuged and resuspended in flow cytometric wash/staining buffer (DPBS+2% FBS) in the presence of human and mouse Fc receptor blocking antibodies (Biolegend). Cells were then stained with anti-human-CD45, -EpCAM and -CCR10 antibodies for 20 min at 4° C. Unstained, isotype controls, fluorescent minus one controls and staining in non-humanized murine lung and spleen suspensions were utilized to gate out any non-specific antibody binding and background fluorescence. CCR10 antibodies were validated via the enrichment for CCR10 transcripts in magnetically sorted CCR10^+ cells versus non-sorted normal and IPF explant cells (FIG. 35). Flow cytometric data were acquired within one week of staining using a LSR Frotessa (BD Biosciences) or MACSQuant 10 (Miltenyi Biotech) flow cytometers and data were analyzed using Flowjo software V10.2 (Treestar Inc.). The resulting gates from non-humanized NSG-GFP mice were used to identify human CD45-, EPCAM-, CCR10-, and PDGFRα-stained cells (FIGS. 36C & 21F).
Lung tissue was fixed in 10% NBF solution for 24 h and subsequently transferred into tissue cassettes and kept in a 70% ethanol solution for approximately 24 h, Lungs were then processed using routine histology techniques and stained using Masson's trichrome. A Zeiss Axio Observer Z1 microscope and the Zeiss Zen 2012 v 1.1.2.0 software (Zeiss) were used to obtain representative images.
Total lung hydroxyproline was analyzed. […] On the day of the assay, tissues were thawed and […] of distilled water (dH2O) was added to the tissues. Tissues were homogenized using a micro-sample homogenizer (Pro Scientific) as follows: the homogenizing tip was washed in 70% ethanol, then dH2O and then utilized to homogenize the tissues. The homogenizer was washed in dH2O between samples and a new batch of dH2O was utilized after 5 samples. […]

[1] = prophylactic, 5 mg/kg days 0 to 35, day 35, flow cytometry
[2] = treatment beginning at day 7, day 35

B1: KB004: afucosylated anti-EphA3 mAb supplied by Kalobios; targets EphA3+ cells via antibody-dependent cell-mediated cytotoxicity (ADCC) (antibody, chains of the INN, looked up, V domains shown)
VH: QVQLVQSGAEVKKPGASVKVSCKASGYTFTGYWMNWVRQAPGQGLEWMGDIYPGSGNTNYDEKFQGRVTMTRDTSISTAYMELSRLRSDDTAVYYCARGGYYEDFDSWGQGTTVTVSS
VL: DIQMTQSPSFLSASVGDRVTITCRASQGIISYLAWYQQKPEKAPKRLIYAASSLQSGVPSRFSGSGSGTEFTLTISSLQPEDFATYYCGQYANYPYTFGQGTKLEIK
Prophylactic treatment over 35 days
  development of lung fibrosis: completely prevented
[1]
  CCR10+ CD45+ cells in lungs, KB004 versus KB243: significant reduction
  CCR10+ Lin- cells in lungs, KB004 versus KB243: significant reduction
prophylactic, 5 mg/kg i.p. twice weekly days 0 to 35, day 35
  hydroxyproline in the lungs: significantly reduced
Therapeutic treatment from days 35 to 63
  numbers of CD45+ and Lin- CCR10+ cells and pulmonary fibrosis: failed to reduce
therapeutic, days 35 to 63
  histological appearance, KB243 versus KB004: no significant difference
  lung hydroxyproline, KB243 versus KB004: no significant difference
therapeutic, days 35 to 63, flow cytometry
  CCR10+ cell numbers, KB243 versus KB004: no significant difference
therapeutic, starting at day 35, day 63
  hydroxyproline in humanized NSG lungs relative to non-humanized mice: elevated
[2]
  histological interstitial consolidation, KB004 compared to KB243: ameliorated
  number of CD45+ CCR10+ cells, KB004 compared to KB243: significant reduction
Treatment beginning at day 7 after IPF cell injection, day 35
  lung hydroxyproline, KB004 compared to KB243: lower
